# Data from the nanobody polyreactivity screen of Harvey et al. (2022).
# Assay: yeast display, Sf9 membrane polyspecificity reagent, FACS + sequencing; frameworks hold sequencing errors
# In short: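 Sorting gates, low and high (top ~1%), were placed on anti-HA fluorescence to track expression and on streptavidin fluorescence to track reagent binding. A clone's polyreactivity label is taken from the gate it came out of. The reagent was 10% biotinylated, detergent-solubilized Sf9 membrane, applied for 1 hour at 4 °C to galactose-induced yeast display cells.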
row,Sequence,polyreactivity (PSR sort gate)
1,QVQLVESGGGLVQAGGSLRLSCAASGFIFVDNAMGWYRQAPRQERELVASITRGGSTDYADSVKGRFTISRDNAKNTVYLQRNSLKPEDTAVYYCAASWHRPAPDEGMDYWGQGTQVTVSS,low polyreactivity
2,QVQLVESGGGLVQAGGSLRLSCAASGFIFVDYVMGWDIQAPGKERELVAAISERGTGTYYADSVKRRFTISRDKAKNTVYLQMNSLKPEDTAVYYCATLGTGWWNCAYYYWGQGTQVTVSS,low polyreactivity
3,QVQLVESGGGLVQAGGSLRLSCAASGFIFVEYAMGWYRQAPGKERELVAAISGRDGSTYYADSVKGRFTISRDNAKNTVYLQMNSLKPEDTAVYYCAADRIHSVTRYDYDYWGQGTQVTVSS,low polyreactivity
4,QVQLVESGGGLVQAGGSLRLSCAASGFIFVGNDMGWYRQAPGKERELVAAISSGGSTYYADSVKGRFTISRDNAKNTVYLQMNSLKPEDTAVYYCAATYVYYLYGYWGQGTQVTVSS,low polyreactivity
5,QVQLVESGGGLVQAGGSLRLSCAASGFIFVGNDMGWYRQAPGKERELVAAISSGGTTIYADSVKGRFTISRDNAKNTVYLQMNSLKPEDTAVYFCAADYDYRQGYDSVHLDYWGQGTQVTVSS,low polyreactivity
6,QVQLVESGGGLVQAGGSLRLSCAASGFIFVGNVMGWYRQAPGKERELVARISTSGGSTYYADSVKGRFTISRDNAKNTVYLQMNSLKPEDTAVYYCAARRRTGREYGYWGQGTQVTVSS,high polyreactivity
7,QVQLVESGGGLVQAGGSLRLSCAASGFIFVIYAMGWSRQAPGKERELVAAIRWRGGGTYYADSVKGRFTISRDNAKNTVYLQMYSLKPEDTAVYYCNADGWTYREEYWWRMDYWGQGTQVTVSS,low polyreactivity
8,QVQLVESGGGLVQAGGSLRLSCAASGFIFVKYAMGWNRQAPGKERELVAAITNGCSTYYADSVKGRFTISRDNAKNTVYLQMNSLKPEDTAVYYCAAGHPEYDFWGQGTQVTVSS,low polyreactivity
9,QVQLVESGGGLVQAGGSLRLSCAASGFIFVKYVMGWYRQAPGKERELVATITNGVSTNYADSVKGRFTISRDNAKNTVYLQMNSLKPEDTAVYYCNTGSNAWYFSGDYWGQGTQVTVSS,low polyreactivity
10,QVQLVESGGGLVQAGGSLRLSCAASGFIFVNYAMGWYRQAPGKERELVAAITRRGGRTYYADSVKGRFTISRDNAKNTVFLQINRLKPEDTAVYYCATENQSRTPEEDSWGQGTQVTVSS,high polyreactivity
11,QVQLVESGGGLVQAGGSLRLSCAASGFIFVRNAMVWYRQAPGIERELVAAIRWSGGSTYYADSVKGRFTISRDNAKNTVYLQMNSLKPEDTAVYYCAKEPPPVKGDYWGQGTQVTVSS,low polyreactivity
12,QVQLVESGGGLVQAGGSLRLSCAASGFIFVRNTRGWYRQAPGKERELVATITRRGGSTSYADSVKGRFTISRDNAKNTVYLQMNSLKPEDTAVYYCNARSVYGSKQEEYWGQGTQVTVSS,high polyreactivity
13,QVQLVESGGGLVQAGGSLRLSCAASGFIFVRYALGWYSQAPGKEMELVAAIRRGGGDSSYYADSVKGRFTISRDNAKNTVYLQMNSLKPEDTAVYYCAARPAIERDYWGQGTQVTVSS,high polyreactivity
14,QVQLVESGGGLVQAGGSLRLSCAASGFIFVRYAMGWYRQAPGKERELVAAISSSGGTTNYADSVKGRFTISRDNAKNTVYLQMNSLKPEDTAVYYCAAYVYQTPHSLHIYDYWGQGTQVTVSS,low polyreactivity
15,QVQLVESGGGLVQAGGSLRLSCAASGFIFVRYAMGWYRQAPGKQRELVASITRSGGSTYYADSVKGRFTISRDNAKNTVYLQMNSLKPEDTAVYYCAASYFRSRGSTYGYWGQGTQVTVSS,high polyreactivity
16,QVQLVESGGGLVQAGGSLRLSCAASGFIFVVYTMGWYRQAPGKERELVAAITSGGSTYYADSVKGRFTISRDNAKNTVYLQMNSLKPEDTAVYYCYALASRYPAYYYWGQGTQVTVSS,low polyreactivity
17,QVQLVESGGGLVQAGGSLRLSCAASGFIFVYNAMGWYRQAPGKERELVAAIDYGGGSTTYADSVKGRFTISRDNAKNTVYLQMNSLKPEDTAVYYCAAYYRYLDDIYEYEYWGQGTQVTVSS,low polyreactivity
18,QVQLVESGGGLVQAGGSLRLSCAASGFIFWDKAMGWYRQAPGKEWELVAAISKSGTRTYYADSVKGRFTISRDTAKKTVDLQMNSLKPEETAVYYCAAEGSGYDYYYWGQGTQVTVSS,high polyreactivity
19,QVQLVESGGGLVQAGGSLRLSCAASGFIFWDYAMGWYRQAPGKERELVAAISDSGGDTYYADSVKGRFTISRDNAKNTVYFQMNSLKPEDTAVYYCAADVELWVFRGQQYDYWGQGTQVTVSS,low polyreactivity
20,QVQLVESGGGLVQAGGSLRLSCAASGFIFWGNAMGWYRQAPGKERELLAAINYSGGRTYYADSVKGRFTISRDNAKNTVYLQMNSLKPEDSAAYYCAAKYRYHVSGYDYWGQATQVTVSS,high polyreactivity
21,QVQLVESGGGLVQAGGSLRLSCAASGFIFWKNAMGWYRQAPGKERELVAAISWSGGRTYYADSVKGRFTISRDNAKNTVYLQMNSLKPEDTAVYYCNAAGRYKPGAPYDYWGQGTQVTVSS,low polyreactivity

row,Sequence,polyreactivity (PSR sort gate)
1,QVQLVESGGGLVQAGGSLRLSCAASGFIFWNYAMGWNRQAPGKERDLVAAISSGGTITKYADSVKGRFTISRDKAKNTVYLQMNSLKPEDTAVYYCNAVVRVRFRKNDYWGQGTQVTVSS,high polyreactivity
2,QVQLVESGGGLVQAGGSLRLSCAASGFIFWSYAMGWYRQAPGKERELVAAINTSGDSTYYADSVKGRFTISRDNAKYTVYLQMNSLKPEDTAVYSCAAKSSTRGDYWGQGTQVTVSS,low polyreactivity
3,QVQLVESGGGLVQAGGSLRLSCAASGFIFWSYAMGWYRQAPGKERELVAAISWSGGRTYYADSVKGRFTISRDNAKNTVYLQMNSLKPEDTAVYYCAAVIRYGSQYPALDYWGQGTQVTVSS,high polyreactivity
4,QVQLVESGGGLVQAGGSLRLSCAASGFIFWTYAMGWYRQAPGKERELVAAITGGGGTTYYADSVKGRFTISRDNAKNTVYLQMNSLKPEDTAVYYCAAKQYRSRSGGYWGQGTQVTVSS,high polyreactivity
5,QVQLVESGGGLVQAGGSLRLSCAASGFIFWVNAMGWYRQAPGKERELVAAISQSGGTTYYADSVKGRFTISRDNAKNTVYFQMNSLKPEDTAVYYCNALWRGHGRYNYWGQGTQVTVSS,low polyreactivity
6,QVQLVESGGGLVQAGGSLRLSCAASGFIFWWYGMGWYRPAPGKEREFVAAITQSGSTYYADSVKGRFTISRDNAKNTVYLQMNSLKPEDTAVYYCADVVGRRLYPRYDYWGQGTQVTVSS,high polyreactivity
7,QVQLVESGGGLVQAGGSLRLSCAASGFIFWWYTMGWYRQAPGKETELVAAITGSGGSTYYADSVKGRFTISRDNAKNTVYLQMNSLKPEDTAVYYCNAVSAYKWQYDYWGQGTQVTVSS,high polyreactivity
8,QVQLVESGGGLVQAGGSLRLSCAASGFIFWYYAMGWYRPAPGQERELVAAIRRGGSTNYADSVKGRFTISRDNAKNTVYLQMNSLKPEDTAVYYCAADVPRDTFDSWGQGTQVTVSS,low polyreactivity
9,QVQLVESGGGLVQAGGSLRLSCAASGFIFWYYAMGWYRQAPGKERELVAAISWSGTSTYYADSVKGRFTISRDNAKNTVYLQMNSLKPEDTAVYYCAAGPYSYYPLHAHYDYWGQGTQVTVSS,high polyreactivity
10,QVQLVESGGGLVQAGGSLRLSCAASGFIFWYYAMGWYRQAPGKERELVAAITSGGSTNYADSVKGRFTISRDNAKNTVYLQMNSLKPEDTAVYYCARPYVTYEYDYWGQGTQVTVSS,low polyreactivity
11,QVQLVESGGGLVQAGGSLRLSCAASGFIFWYYAMGWYRQAPGKERELVAAITSRGGSTYYADSVKGRFTISSDNAKNTDYLQMNSLKPEDTAVYYCAAKFPSRFYSFVQYYYWGQGTQVTVSS,high polyreactivity
12,QVQLVESGGGLVQAGGSLRLSCAASGFIFWYYDMGWYRPAPGKEREFVAAITRSSGSTYYADSVKGRFTISRDNAKNTVYLQMNSLKPEDTAVYYCNADSVAYGDEYDYWGQGTQVTVSS,low polyreactivity
13,QVQLVESGGGLVQAGGSLRLSCAASGFIFYANAMGWYRQAPGKERELVAAITWSGSRTYYADSVKGRFTISRDNAKNTVYLQMNSLKPEDTAVYYCNKDWYVGSFGYPEDYWGQGTQVTVSS,low polyreactivity
14,QVQLVESGGGLVQAGGSLRLSCAASGFIFYDYAMGWYRQAPGKERELVAAIRSSDGGTYYADSVKGRFTISRDNAKNTVYLQMNSLKPEDTAVYYCAAEIRWGWHPYYDYDEYWGQGTQVTVSS,low polyreactivity
15,QVQLVESGGGLVQAGGSLRLSCAASGFIFYDYAMGWYRQAPGKERELVAAISSGGSTNYADSVKGRFTISRDNAKNSVYLQMNSLKPEDTAVYYCAADDRSYATWKRDYDYWGQGTQVTVSS,low polyreactivity
16,QVQLVESGGGLVQAGGSLRLSCAASGFIFYDYAMGWYRQAPGKERELVAAITVDGGTTYYADSVKGRFTISRDNAKNTVYLQMNSLKPEDTAVYYCAADTYYGFDSNYEYWGQGTQVTVSS,low polyreactivity
17,QVQLVESGGGLVQAGGSLRLSCAASGFIFYDYAMGWYRQAPGKERELVAGITDSGGSTSYADSVKGRFTISRDNAKNTVYLHMNSLKPEDTAVYYCAADNYVRAGINYDYWGQGTQVTVSS,low polyreactivity
18,QVQLVESGGGLVQAGGSLRLSCAASGFIFYDYAMGWYRQAPGKERELVAVITSGGSTYYADSVKGRFTISRDNAKNTVYLQMNSLKPEDTAVYYCNADWVFTWYDYPNDKYDYWGQGTQVTVSS,low polyreactivity
19,QVQLVESGGGLVQAGGSLRLSCAASGFIFYEYAMGWYRQAPGKERELVAAITSGGSTDYADSVKGRFTISRDNANNTVYLQMNSLKPEDTAVYYCNADLFTGYYWYNYWGQGTQVTVSS,low polyreactivity
20,QVQLVESGGGLVQAGGSLRLSCAASGFIFYGNAMGWYRQAPGKERELVAAITRRGGRTYYADSVKGRFTISRDNAKNTVYLQMNSLKPEDTAVYYCAKDRGRSLEMDYWGQGTQVTVSS,high polyreactivity
